Target: Staphylococcus aureus FrmB (Staphylococcus aureus Newman)
Test: SEC

stoichiometry N: 2
Substance: Staphylococcus aureus FrmB (enzyme)
